# Data published in patent publication US20150344570A1 (published 2015).
# Numbering of substitutions follows the chain as printed. In names and notes the source's numbering stands.
# T1: FcgRIIaR (human, UniProt P12318 34-217)
# T1 construct: extracellular domain; also called FcγRIIa R; FcgRIIa type R; not shown: His tag attached to the C terminus
# T1 sequence (looked up): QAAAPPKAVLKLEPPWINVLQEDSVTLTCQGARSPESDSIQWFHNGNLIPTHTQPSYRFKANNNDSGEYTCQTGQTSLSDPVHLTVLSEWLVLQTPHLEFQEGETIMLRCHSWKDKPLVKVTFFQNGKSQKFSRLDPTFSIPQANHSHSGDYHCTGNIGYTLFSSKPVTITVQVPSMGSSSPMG
# T2: FcgRIIaH (human, UniProt P12318 34-217)
# T2 construct: extracellular domain; also called FcγRIIa H; FcgRIIa type H; not shown: His tag attached to the C terminus
# T2 sequence (looked up): T1 sequence (looked up) with R134H
# T3: FcgRIIb (human, UniProt P31994 43-217)
# T3 construct: extracellular domain; also called FcγRIIb; 2b; not shown: His tag attached to the C terminus
# T3 sequence (looked up): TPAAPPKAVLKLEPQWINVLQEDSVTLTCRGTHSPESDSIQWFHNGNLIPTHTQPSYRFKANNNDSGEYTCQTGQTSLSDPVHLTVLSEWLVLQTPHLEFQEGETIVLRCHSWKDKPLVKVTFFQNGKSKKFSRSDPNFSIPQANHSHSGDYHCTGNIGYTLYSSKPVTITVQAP
# B1: H240-Kn184/H240-Hl068/L73-k0 (antibody, human IgG1, kappa)
# heavy 1: QDQLVQSGAEVKKPGASVKVSCKASGFNIKDTYIQWVRQAPGQGLEWMGRIDPLRKQTKYREKFEGRVTITADTSTNTAYMELSSLRSEDTAVYYCVRSGREFDYWGQGTLVTVSSASTKGPSVFPLAPSSKSTSGGTAALGCLVKDYFPEPVTVSWNSGALTSGVHTFPAVLQSSGLYSLSSVVTVPSSSLGTQTYICNVNHKPSNTKVDKKVEPKSCDKTHTCPPCPAPEEYWGPMVFLFPPKPKDTLMISRTPEVTCVVVDVSDEDPEVKFNWYVDGVEVHNAKTKPREEQYNATYRVVSVLTVLHQDWLNGKEYKCKVSNKDLPAPIEKTISKAKGQPREPQVCTLPPSRDELTKNQVSLWCLVKGFYPSDIAVEWESNGQPENNYKTTPPVLDSDGSFFLYSKLTVDKSRWQQGNVFSCSVMHEALHNHYTQKSLSLSP
# heavy 2: QDQLVQSGAEVKKPGASVKVSCKASGFNIKDTYIQWVRQAPGQGLEWMGRIDPLRKQTKYREKFEGRVTITADTSTNTAYMELSSLRSEDTAVYYCVRSGREFDYWGQGTLVTVSSASTKGPSVFPLAPSSKSTSGGTAALGCLVKDYFPEPVTVSWNSGALTSGVHTFPAVLQSSGLYSLSSVVTVPSSSLGTQTYICNVNHKPSNTKVDKKVEPKSCDKTHTCPPCPAPELLGGPSVFLFPPKPKDTLMISRTPEVTCVVVDVSHEEPEVKFNWYVDGVEVHNAKTKPREEQYNSTYRVVSVLTVLHQDWLNGKEYKCKVSNDALPKPIEETISKAKGQPREPQVYTLPPSRCELTKNQVSLSCAVKGFYPSDIAVEWESNGQPENNYKTTPPVLDSDGSFFLVSKLTVDKSRWQQGNVFSCSVMHEALHNHYTQKSLSLSP
# light: DIQMTQSPSSLSASVGDRVTITCRASQDIHKYIAWYQQKPGQAPRLLIQYTSTLQPGVPSRFSGSGSGTDYTFTISSLQPEDIATYYCLQYEQLRTFGGGTKVEIKRTVAAPSVFIFPPSDEQLKSGTASVVCLLNNFYPREAKVQWKVDNALQSGNSQESVTEQDSKDSTYSLSSTLTLSKADYEKHKVYACEVTHQGLSSPVTKSFNRGEC
# notes: Anti-epiregulin heterodimerized IgG1, knobs-into-holes
# B2: H240-Kn189/H240-Hl068/L73-k0 (antibody, human IgG1, kappa)
# heavy 1: B1 heavy 1 with E233S
# heavy 2: B1 heavy 2
# light: B1 light
# notes: as for B1
# B3: H240-Kn198/H240-Hl076/L73-k0 (antibody, human IgG1, kappa)
# heavy 1: B1 heavy 1 with E233L, Y234Q, D269E, D326A
# heavy 2: B1 heavy 2 with K329M
# light: B1 light
# notes: as for B1
# B4: H240-Kn199/H240-Hl068/L73-k0 (antibody, human IgG1, kappa)
# heavy 1: B1 heavy 1 with E233L
# heavy 2: B1 heavy 2
# light: B1 light
# notes: as for B1
# B5: H240-Kn200/H240-Hl076/L73-k0 (antibody, human IgG1, kappa)
# heavy 1: B1 heavy 1 with E233S, Y234Q, D269E, D326A
# heavy 2: B1 heavy 2 with K329M
# light: B1 light
# notes: as for B1
# B6: H240-Kn201/H240-Hl076/L73-k0 (antibody, human IgG1, kappa)
# heavy 1: B1 heavy 1 with E233F, Y234Q, D269E, D326A
# heavy 2: B1 heavy 2 with K329M
# light: B1 light
# notes: as for B1
# B7: H240-Kn202/H240-Hl076/L73-k0 (antibody, human IgG1, kappa)
# heavy 1: B1 heavy 1 with Y234Q, D269E, D326A
# heavy 2: B1 heavy 2 with K329M
# light: B1 light
# notes: as for B1
# B8: H240-Kn203/H240-Hl068/L73-k0 (antibody, human IgG1, kappa)
# heavy 1: B1 heavy 1 with E233F
# heavy 2: B1 heavy 2
# light: B1 light
# notes: as for B1
# B9: H240-Kn204/H240-Hl211/L73-k0 (antibody, human IgG1, kappa)
# heavy 1: B1 heavy 1 with E233Y, Y234L, W235G, M238S, D267H, K289Y, Y295W, A297S, D326A
# heavy 2: B1 heavy 2 with S238D, E269D, D325K, K329M, E333V
# light: B1 light
# notes: Anti-epiregulin heterodimerized IgG1, knobs-into-holes; L234Y/K290Y/Y296W in one H chain, S239D/A330M/K334V in the other
# B10: H240-Kn205/H240-Hl212/L73-k0 (antibody, human IgG1, kappa)
# heavy 1: B1 heavy 1 with E233Y, Y234L, W235G, M238S, D267H, Y295W, A297C, D326A
# heavy 2: B1 heavy 2 with S238D, E269D, D325K, K329A, E333V
# light: B1 light
# notes: Anti-epiregulin heterodimerized IgG1, knobs-into-holes; L234Y/Y296W/S298C in one H chain, S239D/K334V in the other
# B11: H240-Kn207/H240-Hl076/L73-k0 (antibody, human IgG1, kappa)
# heavy 1: B1 heavy 1 with E233V, Y234Q, D269E, D326A
# heavy 2: B1 heavy 2 with K329M
# light: B1 light
# notes: as for B1
# B12: H240-Kn208/H240-Hl076/L73-k0 (antibody, human IgG1, kappa)
# heavy 1: B1 heavy 1 with E233D, Y234Q, D269E, D326A
# heavy 2: B1 heavy 2 with K329M
# light: B1 light
# notes: as for B1
# B13: H240-Kn209/H240-Hl076/L73-k0 (antibody, human IgG1, kappa)
# heavy 1: B1 heavy 1 with E233Q, Y234Q, D269E, D326A
# heavy 2: B1 heavy 2 with K329M
# light: B1 light
# notes: as for B1
# B14: H240-Kn210/H240-Hl076/L73-k0 (antibody, human IgG1, kappa)
# heavy 1: B1 heavy 1 with E233I, Y234Q, D269E, D326A
# heavy 2: B1 heavy 2 with K329M
# light: B1 light
# notes: as for B1
# B15: H240-Kn211/H240-Hl076/L73-k0 (antibody, human IgG1, kappa)
# heavy 1: B1 heavy 1 with E233M, Y234Q, D269E, D326A
# heavy 2: B1 heavy 2 with K329M
# light: B1 light
# notes: as for B1
# Target: T1, FcgRIIaR
# Assay: SPR (Biacore); KD of H240-Kn033/H240-Hl033/L73-k0 divided by KD of this variant
# Procedure: (§1) H240-Kn204/H240-Hl211/L73-k0 and H240-Kn205/H240-Hl212/L73-k0 were prepared according to the method of Reference Example 1, by combining H240-Kn204 as one of the H chains and L73-k0 as the L chains with H240-Hl211 as the other H chain, and by combining H240-Kn205 as one of the H chains and L73-k0 as the L chains with H240-Hl212 as the other H chain, and then expressing them. The binding of the prepared variants to FcgRIa, FcgRIIaR, FcgRIIaH, FcgRIIb, FcgRIIIaF, and FcgRIIIaV was measured according to the method of Reference Example 8.
# (§2) “fold 2aR”, “fold 2aH”, “fold 2b”, “fold 3aF”, and “fold 3aV” show the relative binding activity of each variant to FcgRIIaR, FcgRIIaH, FcgRIIb, FcgRIIIaF, and FcgRIIIaV, respectively, when the binding activity of H240-Kn033/H240-Hl033/L73-k0, a variant produced by introducing only alterations that promote formation of a heterodimerized antibody into a native IgG1, is defined as 1. Specifically, they are values obtained by dividing the KD value of H240-Kn033/H240-Hl033/L73-k0 for each FcgR by the KD value of an individual variant for each FcgR.
# (§3) Analysis of interaction between objective antibody and the FcγR was carried out using Biacore T100 (GE Healthcare), Biacore T200, Biacore A100, and Biacore 4000. HBS-EP+ (GE Healthcare) was used as the running buffer, and the measurement temperature was set to 25° C. Chips produced by immobilizing the antigen peptide by the amine coupling method to a Series S sensor Chip CM5 (GE Healthcare), chips produced by allowing preliminarily biotinylated antigen peptides to interact with and immobilize onto a Series S Sensor Chip SA (certified) (GE Healthcare), chips produced by immobilizing Protein L (ACTIGEN, BioVision) to Series S Sencor Chip CM5 (GE Healthcare), or chips produced by immobilizing Protein A/G (Thermo Scientific) to Series S Sencor Chip CM5 (GE Healthcare) were used. Antibodies of interest were captured onto these chips, and allowed to interact to each FcγR diluted with running buffer.
row,Binder,fold 2aR
1,B1,27.4 fold
2,B2,32.2 fold
3,B3,1.2 fold
4,B4,37 fold
5,B5,0.9 fold
6,B6,1 fold
7,B7,1.2 fold
8,B8,16.1 fold
9,B9,1.2 fold
10,B10,1.2 fold
11,B11,1.1 fold
12,B12,1.5 fold
13,B13,0.6 fold
14,B14,1.3 fold
15,B15,1.3 fold

# Target: T4, FcgRIIIaV (human, UniProt P08637 17-208)
# T4 construct: extracellular domain; also called FcγRIIIa V; 3aV; not shown: His tag attached to the C terminus
# T4 sequence (P08637 17-208 F176V limits assumed): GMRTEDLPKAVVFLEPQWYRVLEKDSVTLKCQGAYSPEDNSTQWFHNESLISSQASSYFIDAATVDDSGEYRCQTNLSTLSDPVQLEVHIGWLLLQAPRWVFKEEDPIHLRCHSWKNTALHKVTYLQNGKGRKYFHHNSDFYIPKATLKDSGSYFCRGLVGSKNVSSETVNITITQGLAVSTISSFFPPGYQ
# Assay: as above
# Procedure: as §1, §2, §3
row,Binder,fold 3aV
1,B1,141 fold
2,B2,92.3 fold
3,B3,88.9 fold
4,B4,117 fold
5,B5,81.4 fold
6,B6,133 fold
7,B7,126 fold
8,B8,63.2 fold
9,B9,6.5 fold
10,B10,11.4 fold
11,B11,98 fold
12,B12,120 fold
13,B13,77.4 fold
14,B14,98 fold
15,B15,92.3 fold

# Target: T2, FcgRIIaH
# Assay: as above
# Procedure: as §1, §2, §3
row,Binder,fold 2aH
1,B1,7.4 fold
2,B2,10.8 fold
3,B3,3.7 fold
4,B4,19.3 fold
5,B5,2.3 fold
6,B6,3.7 fold
7,B7,1.4 fold
8,B8,10.6 fold
9,B9,0.7 fold
10,B10,1.4 fold
11,B11,3.1 fold
12,B12,1.7 fold
13,B13,2.1 fold
14,B14,3.5 fold
15,B15,2.6 fold

# Target: T5, FcgRIIIaF (human, UniProt P08637 17-208)
# T5 construct: extracellular domain; also called FcγRIIIa F; 3aF; not shown: His tag attached to the C terminus
# T5 sequence (P08637 17-208): as the sequence (P08637 17-208 F176V limits assumed) above, with V160F counted along it
# Assay: as above
# Procedure: as §1, §2, §3
row,Binder,fold 3aF
1,B1,132 fold
2,B2,90.6 fold
3,B3,193 fold
4,B4,126 fold
5,B5,121 fold
6,B6,161 fold
7,B7,181 fold
8,B8,85.3 fold
9,B9,20.7 fold
10,B10,24.2 fold
11,B11,153 fold
12,B12,161 fold
13,B13,121 fold
14,B14,161 fold
15,B15,153 fold

# Target: T3, FcgRIIb
# Assay: as above
# Procedure: as §1, §2, §3
row,Binder,fold 2b
1,B1,22 fold
2,B2,22 fold
3,B3,0.5 fold
4,B4,25.4 fold
5,B5,0.5 fold
6,B6,0.6 fold
7,B7,0.8 fold
8,B8,12.2 fold
9,B9,2.5 fold
10,B10,2.1 fold
11,B11,0.6 fold
12,B12,1 fold
13,B13,0.4 fold
14,B14,0.8 fold
15,B15,0.8 fold
